The results in this text go back to patent US20220187308A1 (published 2022).

Assay [1] has as its target T1, soluble human IL-6 receptor (human, UniProt P08887 20-357).
T1 construct: range 1-357; The stated range begins at position 1, so it includes the signal peptide; no cleavage site is stated; also called hsIL-6R
T1 sequence (looked up): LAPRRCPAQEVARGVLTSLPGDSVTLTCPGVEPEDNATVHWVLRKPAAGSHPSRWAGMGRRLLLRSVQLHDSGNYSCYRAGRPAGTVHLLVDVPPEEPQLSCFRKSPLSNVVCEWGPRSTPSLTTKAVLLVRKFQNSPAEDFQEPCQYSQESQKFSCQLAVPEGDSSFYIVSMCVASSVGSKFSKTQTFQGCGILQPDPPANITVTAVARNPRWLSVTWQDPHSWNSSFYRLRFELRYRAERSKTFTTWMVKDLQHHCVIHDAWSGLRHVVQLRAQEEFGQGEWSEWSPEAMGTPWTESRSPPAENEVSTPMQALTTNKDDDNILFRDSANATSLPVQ
As to the kind of experiment: SPR (Biacore T100); ratio of the KD values at 3 µM and 2 mM CaCl2. The method, then:
The antigen-antibody reaction was kinetically analyzed in solutions of 2 mM and 3 μM calcium ion concentrations as high-calcium ion concentration and low-calcium ion concentration conditions, respectively. Each antibody of interest was captured onto Sensor chip CM4 (GE Healthcare Bio-Sciences Corp.) with protein A (Invitrogen Corp.) immobilized thereon in an appropriate amount by the amine coupling method. Two types of buffer solutions were used as running buffers: 10 mM ACES, 150 mM NaCl, 0.05% (w/v) Tween 20, and 2 mM CaCl₂ (pH 7.4); and 10 mM ACES, 150 mM NaCl, 0.05% (w/v) Tween 20, and 3 […] CaCl₂ (pH 7.4). The human IL-6 receptors were also diluted with each of these buffers. Assay was all carried out at 37° C.
On the technique in general: Surface plasmon resonance follows binding to a sensor surface in real time, without labels.

The target in a further assay is T2, GC-mIgA (mouse).
T2 construct: also called recombinant mouse IgA GC-mIgA; mouse IgA
T2 sequence (light, as listed by the source): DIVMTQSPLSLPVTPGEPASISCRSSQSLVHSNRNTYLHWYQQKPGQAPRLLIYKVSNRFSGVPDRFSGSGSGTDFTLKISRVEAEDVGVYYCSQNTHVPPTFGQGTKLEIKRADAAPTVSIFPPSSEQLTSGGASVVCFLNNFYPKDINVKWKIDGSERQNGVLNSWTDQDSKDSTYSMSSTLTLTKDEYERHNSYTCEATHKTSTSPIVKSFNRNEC
Nature of the assay: SPR (Biacore A100), antibody from culture supernatant captured via protein A/G on CM5, GC-mIgA as analyte, 25 C, 1.2 mM CaCl2, pH 7.4 against pH 5.8. As to the method: The culture supernatant obtained by the above method was used to analyze GC-mIgA-binding ability using Biacore A100. Antibodies in the culture supernatant were captured onto Sensor chip CM5 (GE Healthcare Bio-Sciences Corp.) with protein A/G (Pierce Biotechnology Inc.) immobilized thereon in an appropriate amount by the amine coupling method. Two types of buffer solutions were used as running buffers: 20 mM ACES, 150 mM NaCl, 0.05% (w/v) Tween 20, and 1.2 mM CaCl₂) (pH 7.4); and 20 mM ACES, 150 mM NaCl, 0.05% (w/v) Tween 20, and 1.2 mM CaCl₂) (pH 5.8). The interaction of antigen-antibody reaction was analyzed under neutral pH and acidic pH conditions. GC-mIgA was also diluted with each of these buffers and injected at a flow rate of 10 μL/min for 60 seconds to interact the antigen with the antibodies captured on the sensor chip. Then, 10 mM glycine-HCl (pH 1.5) was injected thereto at a flow rate of 30 μL/min for 30 seconds to regenerate the sensor chip. Assay was all carried out at 25° C.

Assay [2] addresses T3, biotinylated human HMGB1-Avi (human, UniProt P09429 2-215, biotin added at the C-terminal Avitag sequence by biotin ligase (BirA)).
T3 construct: also called biotin-labeled hHMGB1; hHMGB1-Avitag
T3 sequence: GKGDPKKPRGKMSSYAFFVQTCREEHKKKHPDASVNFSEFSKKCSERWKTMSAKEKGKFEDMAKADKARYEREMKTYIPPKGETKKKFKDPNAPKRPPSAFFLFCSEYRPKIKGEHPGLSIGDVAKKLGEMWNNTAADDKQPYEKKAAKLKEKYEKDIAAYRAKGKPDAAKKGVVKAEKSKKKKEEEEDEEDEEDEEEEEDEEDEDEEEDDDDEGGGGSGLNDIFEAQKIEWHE
Nature of the assay: phage ELISA (Fab displayed on phage) on biotin-labeled hHMGB1 on a StreptaWell plate, pH 7.6 against pH 5.5. The method, then:
A phage-containing culture supernatant was collected by phage culture according to a conventional method (Methods Mol. Biol. (2002) 178, 133-145) from each single colony of the E. coli obtained after the third and fourth rounds of panning carried out in the step (26-2). After addition of BSA and CaCl₂) (final concentration: 4% BSA and 1.2 mM calcium ion), the phage-containing culture supernatant was subjected to ELISA by the following procedures: StreptaWell 96 microtiter plate (F. Hoffmann-La Roche Ltd.) was coated for 4 hours or longer with 100 μL of PBS containing biotin-labeled hHMGB1. Each well of the plate was washed with PBST to remove unbound antigens. Then, the well was blocked with 250 μL of 4% BSA-TBS (50 mM Tris, 300 mM NaCl, 2.5 mM CaCl₂), and 4% BSA) for 1 hour or longer. […] Each well was washed with 1.2 mM CaCl₂)/TBST (pH 7.6), and 1.2 mM CaCl₂)/TBS (pH 7.6) or 1.2 mM CaCl₂)/150 mM NaCl/50 mM MES (pH 5.5) was added thereto. The plate was left standing at 37° C. for 30 minutes for incubation. After washing with 1.2 mM CaCl₂)/TBST (pH 7.6), HRP-conjugated anti-M13 antibodies (Amersham Pharmacia Biotech Inc.) diluted with 4% BSA-TBS were added to each well. The plate was incubated for 1 hour. After washing with 1.2 mM CaCl₂)/TBST (pH 7.6), TMB single solution (Invitrogen Corp.) was added to the well. The chromogenic reaction of the solution in each well was terminated by the addition of sulfuric acid. Then, the developed color was assayed on the basis of absorbance at 450 nm.
(ELISA stands for enzyme-linked immunosorbent assay.)

The target of the next assay is T4, human HMGB1 (human, UniProt P09429 2-215).
T4 construct: Expressed in FreeStyle 293 cells and purified; analyte in the Biacore assay of step (26-5); also called hHMGB1; recombinant human HMGB1
T4 sequence: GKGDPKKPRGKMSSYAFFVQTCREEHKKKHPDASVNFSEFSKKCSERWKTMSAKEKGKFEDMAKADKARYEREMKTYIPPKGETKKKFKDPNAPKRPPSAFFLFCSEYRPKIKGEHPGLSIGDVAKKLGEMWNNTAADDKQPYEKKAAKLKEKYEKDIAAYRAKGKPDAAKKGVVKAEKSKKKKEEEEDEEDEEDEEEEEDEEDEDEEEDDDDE
Nature of the assay: SPR (Biacore T100), antibody captured via protein A/G on CM4, hHMGB1 as analyte, 25 C, 1.2 mM CaCl2, pH 7.4 against pH 5.8. The method, then: In order to judge the pH dependence of hHMGB1-binding activity of the antibodies HM_3_2_R_017 (heavy chain: SEQ ID NO: 131 and light chain: SEQ ID NO: 132), HM_3_2_R_054 (heavy chain: SEQ ID NO: 133 and light chain: SEQ ID NO: 134), and HM_4_1_R_001 (heavy chain: SEQ ID NO: 135 and light chain: SEQ ID NO: 136) obtained in the step (26-4), these antibodies were analyzed for their interaction with hHMGB1 using Biacore T100 (GE Healthcare Bio-Sciences Corp.). The interaction of antigen-antibody reaction was analyzed in solutions of pH 7.4 and pH 5.8 as neutral pH and acidic pH conditions, respectively. Approximately of 200 RU of each antibody of interest was captured onto Sensor chip CM4 (GE Healthcare Bio-Sciences Corp.) with protein A/G (Pierce Biotechnology Inc.) immobilized thereon in an appropriate amount by the amine coupling method. Two types of buffer solutions were used as running buffers: 20 mM ACES, 150 mM NaCl, 0.05% (w/v) Tween 20, and 1.2 mM CaCl₂) (pH 7.4); and 20 mM ACES, 150 mM NaCl, 0.05% (w/v) Tween 20, and 1.2 mM CaCl₂) (pH 5.8). hHMGB1 was also diluted with each of these buffers. Assay was all carried out at 25° C.
In the analysis on the interaction of antigen-antibody reaction using the HM_3_2_R_017 antibody, the HM_3_2_R_054 antibody, and the HM_4_1_R_001 antibody, the diluted hHMGB1 solution or a blank running buffer was injected at a flow rate of 10 μL/min for 60 seconds to […] onto the sensor chip. The HM_3_2_R_017 antibody, the HM_3_2_R_054 antibody, and the HM_4_1_R_001 antibody were interacted with hHMGB1. Then, 10 mM glycine-HCl (pH 1.5) was injected thereto at a flow rate of 30 μL/min for 30 seconds to regenerate the sensor chip.

B1: FH4-IgG1 (antibody, V domains shown)
VH: QVQLVQSGAEVKKPGSSVKVSCKASGGTFSSYAISWVRQAPGQGLEWMGGIIPIFGTANYAQKFQGRVTITADESTSTAYMELSSLRSEDTAVYYCARERDYYDSSGYYDAFDIWGQGTMVTVSS
VL: ETTVTQSPSFLSASVGDRVTITCITTTDIDDDMNWFQQEPGKAPKLLISEGNILRPGVPSRFSSSGYGTDFTLTISKLQPEDFATYYCLQSDNLPFTFGQGTKLEIKR
notes: also called FH4-IgG1 antibody
In the case of B1, in assay [1], the “Ca dependence (KD at 3 µM CaCl2 against KD at 2 mM CaCl2)” value (shortened to “Ca dependence”) is no less than 60 times.

B2: 6RL #9-IgG1 (antibody, V domains shown)
VH: QVQLVQSGAEVKKPGASVKVSCKASGYTFTSYYMHWVRQAPGQGLEWMGIINPSGGSTSYAQKFQGRVTMTRDTSTSTVYMELSSLRSEDTAVYYCARDDPGGGEYYFDYWGQGTLVTVSS
VL: QSVLTQPPSVSGAPGQRVTISCTGSRSNMGAGYDVHWYQLLPGAAPKLLISHNTHRPSGVPDRFSGSKSGASASLAITGLQAEDEADYYCQSHDSSLSAVVFGGGTKLTVLS
notes: also called 6RL #9 antibody; 6RL #9-IgG1 antibody
Regarding B2, in assay [1], the “Ca dependence” value is no less than 120 times.

B3: mIAP1B3-3_#024 (antibody, human IgG1, kappa, V domains shown)
VH: QVQLQESGPGLVKPSQTLSLTCAVSGGSISKTYSYWAWIRQHPVKGLEWIGYISYGGGTHYNPSLKSRVTISSDTSKNHFSLNLNSVTAADTAVYYCARSGFRVFGAFDIWGQGTMVTVSS
VL: DIQMTQSPSSLSASVGDRVTITCRASQSIRSHLNWYQQKPGKAPKLLIYDASHLQSGVPSRFSGSGSGTDFTLTISSLQPEDFATYYCQQHYNSPLTFGQGTKVEIKR
notes: From His library 1; tested from the culture supernatant of 293-F cells
With B3, in the assay with GC-mIgA, the binding result is listed as “binds”.

B4: HM_3_2_R_017 (antibody, human IgG1, kappa, V domains shown)
VH: QVQLQESGPGLVKPSETLSLTCSVSGGPISSSGYYWGWIRQPPGKGLEWIGTVYFNGDTYYNPSLKSRVTISVDTSKNQFSLKLNSVTAADTAVYYCAREEGYYYYYMDVWGKGTTVTVSS
VL: DIQMTQSPSSLSASVGDRVTITCRASQSINSHLNWYQQKPGKAPKLLIYGASHLQSGVPSRFSGSGSGTDFTLTISSLQPEDFATYYCQQSHSYPLTFGQGTKVEIKR
notes: From His library 1; also called HM_3_2_R_017 antibody
Turning to B4, the binding result (in assay [2]; in the assay with human HMGB1) was “binds” each time.

B5: mIAP1B3-3_#230 (antibody, human IgG1, kappa, V domains shown)
VH: QVQLQQSGPGLVKPSESLSLTCNVSGYYISSGYYWGWIRQPPGKGLEWIGSIYPSGTSHYNPSLKSRVTISLDTSKNQFSLKLSSLSAADTAVYYCARAGVIAGGPRTYAFDIWGQGTTVTVSS
VL: DIQMTQSPSSLSASVGDRVTITCRASQSIRSHLAWYQQKPGKAPKLLIYKASHLQSGVPSRFSGSGSGTDFTLTISSLQPEDFATYYCQQSHHSPLTFGQGTKVEIKR
notes: as for B3
In the case of B5, the binding result with GC-mIgA is “binds”.

B6: HM_3_2_R_054 (antibody, human IgG1, kappa, V domains shown)
VH: QVQLVQSGAEVKKPGSSVKVSCKASGGTFSSYAISWVRQAPGQGLEWMGGIIPIFGTANYAQKFQGRVTITADESTSTAYMELSSLRSEDTAVYYCARDNRTLTYYDFWSGYSFWDAFDIWGQGTMVTVSS
VL: DIQMTQSPSSLSASVGDRVTITCRASQSIHSHLAWYQQKPGKAPKLLIYGASHLQSGVPSRFSGSGSGTDFTLTISSLQPEDFATYYCQQRHSYPLTFGQGTKVEIKR
notes: From His library 1; also called HM_3_2_R_054 antibody
Take B6: the binding result (in assay [2]; with human HMGB1) was “binds” each time.

B7: mIAP1B3-3_#130 (antibody, human IgG1, kappa, V domains shown)
VH: QVQLQESGPGLVKPSETLSLTCTVSGGSISSSSYYWGWIRQPPGKGLEWIGSIYYSGSTYYNPSLKSRVTISVDTSKNQFSLKLSSVTAADTAVYYCARHGPSGSYYAFDIWGQGTMVTVSS
VL: DIQMTQSPSSLSASVGDRVTITCRASQSISSHLNWYQQKPGKAPKLLIYKASHLQSGVPSRFSGSGSGTDFTLTISSLQPEDFATYYCQQRHHSPLTFGQGTKVEIKR
notes: as for B3
Turning to B7, the binding result in the assay with GC-mIgA is recorded as “binds”.

B8: H54/L28-IgG1 (antibody, V domains shown)
VH: QVQLQESGPGLVKPSETLSLTCAVSGYSISDDQAWSWVRQPPGEGLEWIGYISYSGITNYNPSLKGRVTISRDTSKNQFSLKLSSVTAADTAAYYCARSLARTTAMDYWGEGTLVTVSS
VL: DIQMTQSPSSLSASVGDSVTITCQASQDISSYLNWYQQKPGKAPELLIYYGSELHSGVPSRFSGSGSGTDFTFTISSLEAEDAATYYCQQGNSLPYTFGQGTKVEIER
notes: Control anti-human IL-6 receptor antibody described in WO2009125825; also called H54/L28-IgG1 antibody
Consider B8, for which, in assay [1], the “Ca dependence” value was roughly 1 times.
